Results: the supplement of paper PMC9112550, “Optimization of the antimicrobial peptide Bac7 by deep mutational scanning” (BMC Biology, 2022)

Tested on: Escherichia coli TOP10
Test: shrunken log2 fold change of peptide-encoding DNA abundance (4.5 h post-induction vs induction); higher = less antimicrobial activity (less host growth inhibition)
Conditions: time post-induction: 4.5 h; library: site-saturation at positions 5, 18, 19, 20
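Also: peptides expressed intracellularly from a pBAD plasmid library in pooled LB shake-flask culture, induced with 0.3% L-arabinose, DNA abundance read by NGS, three biological replicates, DESeq2 with apeglm shrinkage.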

| Sequence | shrunken log2 fold change |
| --- | --- |
| RRIRIRPPRLPRPRPRPEEAPRP | 0.215 |
| RRIRYRPPRLPRPRPRPSPFPRP | 0.0737 |
| RRIRDRPPRLPRPRPRPEDNPRP | 1.31 |
| RRIRVRPPRLPRPRPRPHTHPRP | -0.414 |
| RRIRDRPPRLPRPRPRPLHFPRP | -0.0881 |
| RRIRRRPPRLPRPRPRPGYLPRP | -0.12 |
| RRIRLRPPRLPRPRPRPAFVPRP | 0.205 |
| RRIRTRPPRLPRPRPRPTMYPRP | -0.82 |
| RRIRSRPPRLPRPRPRPRTAPRP | 0.0119 |
| RRIRLRPPRLPRPRPRPRRHPRP | 0.214 |
| RRIRMRPPRLPRPRPRPEWMPRP | 0.156 |
| RRIRERPPRLPRPRPRPKSSPRP | -0.0505 |
| RRIRPRPPRLPRPRPRPIAMPRP | 0.0793 |
| RRIRERPPRLPRPRPRPWSVPRP | -0.113 |
| RRIRKRPPRLPRPRPRPLCKPRP | 0.0465 |
| RRIRARPPRLPRPRPRPTDFPRP | -0.000766 |
| RRIRDRPPRLPRPRPRPEKTPRP | 0.0897 |
| RRIRTRPPRLPRPRPRPHIEPRP | -0.0284 |
| RRIRDRPPRLPRPRPRPLLNPRP | 0.124 |
| RRIRCRPPRLPRPRPRPHQHPRP | -0.302 |
| RRIRMRPPRLPRPRPRPKCYPRP | -0.0362 |
| RRIRFRPPRLPRPRPRPTCNPRP | -0.178 |
| RRIRTRPPRLPRPRPRPIDVPRP | -0.0217 |
| RRIRIRPPRLPRPRPRPDRNPRP | -0.913 |
| RRIRFRPPRLPRPRPRPQAKPRP | 0.128 |

| Sequence | shrunken log2 fold change |
| --- | --- |
| RRIRKRPPRLPRPRPRPVHQPRP | 0.305 |
| RRIRKRPPRLPRPRPRPSEEPRP | 0.1 |
| RRIRKRPPRLPRPRPRPNWIPRP | -0.2 |
| RRIRDRPPRLPRPRPRPLHWPRP | -0.124 |
| RRIRERPPRLPRPRPRPRFHPRP | -0.447 |
| RRIRGRPPRLPRPRPRPNGYPRP | -0.00669 |
| RRIRIRPPRLPRPRPRPYITPRP | -1.34 |
| RRIRARPPRLPRPRPRPDDMPRP | 0.371 |
| RRIRHRPPRLPRPRPRPRHSPRP | -0.173 |
| RRIRGRPPRLPRPRPRPGSKPRP | 0.0737 |
| RRIRPRPPRLPRPRPRPCTKPRP | -0.244 |
| RRIRIRPPRLPRPRPRPDILPRP | -0.354 |
| RRIRHRPPRLPRPRPRPKFCPRP | -0.132 |
| RRIRSRPPRLPRPRPRPTFKPRP | -0.0617 |
| RRIRIRPPRLPRPRPRPDWGPRP | -0.0242 |
| RRIRKRPPRLPRPRPRPYMRPRP | -0.0194 |
| RRIRLRPPRLPRPRPRPWIVPRP | -0.0907 |
| RRIRQRPPRLPRPRPRPAQIPRP | 0.028 |
| RRIRKRPPRLPRPRPRPNICPRP | -0.0826 |
| RRIRGRPPRLPRPRPRPVPGPRP | 0.742 |
| RRIRMRPPRLPRPRPRPHSVPRP | 0.0764 |
| RRIRDRPPRLPRPRPRPWTFPRP | -0.22 |
| RRIRGRPPRLPRPRPRPNFFPRP | 0.122 |
| RRIRTRPPRLPRPRPRPGGYPRP | -0.0912 |
| RRIRHRPPRLPRPRPRPNYCPRP | -0.0948 |

| Sequence | shrunken log2 fold change |
| --- | --- |
| RRIRLRPPRLPRPRPRPIAFPRP | -0.14 |
| RRIRSRPPRLPRPRPRPFIKPRP | -0.275 |
| RRIRNRPPRLPRPRPRPACNPRP | -0.148 |
| RRIRWRPPRLPRPRPRPTHEPRP | 0.219 |
| RRIRERPPRLPRPRPRPRKGPRP | 0.0234 |
| RRIRQRPPRLPRPRPRPSTKPRP | 0.0644 |
| RRIRPRPPRLPRPRPRPREVPRP | 0.419 |
| RRIRTRPPRLPRPRPRPHEFPRP | -0.175 |
| RRIRGRPPRLPRPRPRPVVGPRP | 0.735 |
| RRIRHRPPRLPRPRPRPDSYPRP | -0.0167 |
| RRIRQRPPRLPRPRPRPAIIPRP | -0.0528 |
| RRIRWRPPRLPRPRPRPTCEPRP | 0.752 |
| RRIRKRPPRLPRPRPRPFINPRP | -0.148 |
| RRIRARPPRLPRPRPRPHELPRP | 0.0601 |
| RRIRYRPPRLPRPRPRPQLWPRP | 0.0782 |
| RRIRCRPPRLPRPRPRPDMQPRP | -0.672 |
| RRIRLRPPRLPRPRPRPQFWPRP | 0.099 |
| RRIRKRPPRLPRPRPRPCEYPRP | 0.0394 |
| RRIRPRPPRLPRPRPRPPWRPRP | 0.558 |
| RRIRGRPPRLPRPRPRPVKGPRP | 0.276 |
| RRIRTRPPRLPRPRPRPRYSPRP | 0.0915 |
| RRIRCRPPRLPRPRPRPAPGPRP | 0.75 |
| RRIRWRPPRLPRPRPRPAMDPRP | 0.109 |
| RRIRQRPPRLPRPRPRPCSQPRP | -0.018 |
| RRIRVRPPRLPRPRPRPDEYPRP | 0.0327 |

| Sequence | shrunken log2 fold change |
| --- | --- |
| RRIRERPPRLPRPRPRPIQQPRP | -0.0452 |
| RRIRMRPPRLPRPRPRPMFYPRP | -0.127 |
| RRIRSRPPRLPRPRPRPDQHPRP | -0.0484 |
| RRIRYRPPRLPRPRPRPARYPRP | -0.000578 |
| RRIRFRPPRLPRPRPRPNDAPRP | 0.186 |
| RRIRLRPPRLPRPRPRPYQSPRP | -0.524 |
| RRIRIRPPRLPRPRPRPMICPRP | -0.224 |
| RRIRDRPPRLPRPRPRPYKLPRP | -1.01 |
| RRIRVRPPRLPRPRPRPIELPRP | -0.167 |
| RRIRERPPRLPRPRPRPKHVPRP | -0.146 |
| RRIRRRPPRLPRPRPRPMDYPRP | 0.0716 |
| RRIRKRPPRLPRPRPRPIVDPRP | 0.234 |
| RRIRVRPPRLPRPRPRPHSMPRP | -0.333 |
| RRIRQRPPRLPRPRPRPIMHPRP | -0.172 |
| RRIRMRPPRLPRPRPRPWSWPRP | -0.00716 |
| RRIRIRPPRLPRPRPRPFPQPRP | -0.549 |
| RRIRMRPPRLPRPRPRPLENPRP | 0.0866 |
| RRIRTRPPRLPRPRPRPIKVPRP | 0.0474 |
| RRIRMRPPRLPRPRPRPTFTPRP | 0.141 |
| RRIRQRPPRLPRPRPRPPMIPRP | 0.0721 |
| RRIRKRPPRLPRPRPRPSGWPRP | -0.146 |
| RRIRKRPPRLPRPRPRPAYFPRP | -0.0128 |
| RRIRARPPRLPRPRPRPCNKPRP | -0.43 |
| RRIRFRPPRLPRPRPRPCSYPRP | -0.344 |
| RRIRPRPPRLPRPRPRPSEEPRP | 0.591 |

| Sequence | shrunken log2 fold change |
| --- | --- |
| RRIRFRPPRLPRPRPRPRRGPRP | 0.435 |
| RRIRERPPRLPRPRPRPCPSPRP | -0.115 |
| RRIRERPPRLPRPRPRPVHFPRP | 0.0364 |
| RRIRQRPPRLPRPRPRPTYGPRP | -0.293 |
| RRIRRRPPRLPRPRPRPQTIPRP | 0.272 |
| RRIRNRPPRLPRPRPRPAGNPRP | 0.0404 |
| RRIRHRPPRLPRPRPRPVTGPRP | -0.213 |
| RRIRFRPPRLPRPRPRPNYKPRP | -0.735 |
| RRIRVRPPRLPRPRPRPSAAPRP | 0.298 |
| RRIRLRPPRLPRPRPRPGYNPRP | -0.774 |
| RRIRHRPPRLPRPRPRPGYTPRP | -0.302 |
| RRIRFRPPRLPRPRPRPEICPRP | 0.172 |
| RRIRHRPPRLPRPRPRPKYDPRP | -0.246 |
| RRIRSRPPRLPRPRPRPLVYPRP | -0.206 |
| RRIRARPPRLPRPRPRPWFNPRP | -0.142 |
| RRIRQRPPRLPRPRPRPAFTPRP | -0.00944 |
| RRIRHRPPRLPRPRPRPRDAPRP | 0.14 |
| RRIRTRPPRLPRPRPRPFNDPRP | -0.136 |
| RRIRWRPPRLPRPRPRPQTNPRP | 0.14 |
| RRIRDRPPRLPRPRPRPKACPRP | 0.024 |
| RRIRWRPPRLPRPRPRPGWHPRP | 0.298 |
| RRIRLRPPRLPRPRPRPNGWPRP | 0.044 |
| RRIRTRPPRLPRPRPRPFNSPRP | -0.127 |
| RRIRGRPPRLPRPRPRPILIPRP | 0.191 |
| RRIRKRPPRLPRPRPRPSAGPRP | 0.227 |

| Sequence | shrunken log2 fold change |
| --- | --- |
| RRIRQRPPRLPRPRPRPINNPRP | -0.803 |
| RRIRRRPPRLPRPRPRPYDFPRP | -0.296 |
| RRIRCRPPRLPRPRPRPMRCPRP | 0.404 |
| RRIRMRPPRLPRPRPRPSFHPRP | -0.432 |
| RRIRCRPPRLPRPRPRPITWPRP | -0.189 |
| RRIRFRPPRLPRPRPRPGQIPRP | -0.133 |
| RRIRNRPPRLPRPRPRPYFSPRP | -0.225 |
| RRIRCRPPRLPRPRPRPITIPRP | -0.261 |
| RRIRNRPPRLPRPRPRPWSCPRP | -0.42 |
| RRIRLRPPRLPRPRPRPRRLPRP | 0.18 |
| RRIRIRPPRLPRPRPRPWQKPRP | 0.0223 |
| RRIRGRPPRLPRPRPRPIICPRP | 0.026 |
| RRIRIRPPRLPRPRPRPQDKPRP | -0.855 |
| RRIRMRPPRLPRPRPRPVIWPRP | 0.46 |
| RRIRRRPPRLPRPRPRPRGNPRP | 0.524 |
| RRIRRRPPRLPRPRPRPASPPRP | 0.314 |
| RRIRYRPPRLPRPRPRPESFPRP | -0.0275 |
| RRIRYRPPRLPRPRPRPTANPRP | -0.602 |
| RRIRMRPPRLPRPRPRPSAMPRP | 1.44 |
| RRIRVRPPRLPRPRPRPSPHPRP | -0.571 |
| RRIRYRPPRLPRPRPRPTYRPRP | -0.27 |
| RRIRIRPPRLPRPRPRPAGDPRP | 0.0386 |
| RRIRHRPPRLPRPRPRPGMWPRP | -0.0849 |
| RRIRHRPPRLPRPRPRPPHDPRP | 0.047 |
| RRIRTRPPRLPRPRPRPLWYPRP | -0.245 |
